Data taken from paper PMC2807882, “Conservation of DNA-binding specificity and oligomerisation properties within the p53 family”.

Tests used:
Test in all cases: fluorescence anisotropy competition titration; 25 mM sodium phosphate (purification buffer pH 7.2), 225 mM NaCl, 10% v/v glycerol, 5 mM DTT, 0.2 mg/mL BSA, 22 C
Settings in all cases: protein: recombinant; tags: N-terminal 6xHis-lipoyl-TEV tag, cleaved; chain copies: 4
[1] = biological target: T1, p73CT (Homo sapiens, UniProt O15350 104-383)
T1 sequence: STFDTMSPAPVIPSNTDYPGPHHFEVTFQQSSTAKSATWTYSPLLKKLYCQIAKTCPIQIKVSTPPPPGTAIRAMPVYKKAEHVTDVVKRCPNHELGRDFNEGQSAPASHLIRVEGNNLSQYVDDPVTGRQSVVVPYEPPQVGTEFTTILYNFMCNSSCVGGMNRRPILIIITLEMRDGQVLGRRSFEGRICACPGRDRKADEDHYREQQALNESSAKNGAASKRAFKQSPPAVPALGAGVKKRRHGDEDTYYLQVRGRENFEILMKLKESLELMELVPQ

[2] = biological target: Hsp53 (Homo sapiens, UniProt P04637 1-393)
[3] = biological target: Mmp53 (Mus musculus, UniProt P02340 1-390)
[4] = biological target: T2, ΔNp63β (Homo sapiens, UniProt Q9H3D4-4 1-461)
T2 sequence: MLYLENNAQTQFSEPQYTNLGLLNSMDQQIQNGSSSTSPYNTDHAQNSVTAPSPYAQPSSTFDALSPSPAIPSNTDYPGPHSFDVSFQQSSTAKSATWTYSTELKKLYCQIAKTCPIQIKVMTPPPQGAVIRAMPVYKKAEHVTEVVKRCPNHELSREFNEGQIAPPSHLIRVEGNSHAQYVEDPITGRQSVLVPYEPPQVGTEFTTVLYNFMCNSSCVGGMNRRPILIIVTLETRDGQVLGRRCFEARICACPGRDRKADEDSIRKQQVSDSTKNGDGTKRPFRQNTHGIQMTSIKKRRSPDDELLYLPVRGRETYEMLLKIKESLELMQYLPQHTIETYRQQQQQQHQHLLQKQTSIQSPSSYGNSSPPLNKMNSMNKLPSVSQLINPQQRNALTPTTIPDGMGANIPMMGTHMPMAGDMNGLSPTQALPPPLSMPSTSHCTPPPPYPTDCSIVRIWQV

[5] = biological target: T3, Dmp53 (Drosophila melanogaster, UniProt Q9N6D8 1-385)
T3 sequence: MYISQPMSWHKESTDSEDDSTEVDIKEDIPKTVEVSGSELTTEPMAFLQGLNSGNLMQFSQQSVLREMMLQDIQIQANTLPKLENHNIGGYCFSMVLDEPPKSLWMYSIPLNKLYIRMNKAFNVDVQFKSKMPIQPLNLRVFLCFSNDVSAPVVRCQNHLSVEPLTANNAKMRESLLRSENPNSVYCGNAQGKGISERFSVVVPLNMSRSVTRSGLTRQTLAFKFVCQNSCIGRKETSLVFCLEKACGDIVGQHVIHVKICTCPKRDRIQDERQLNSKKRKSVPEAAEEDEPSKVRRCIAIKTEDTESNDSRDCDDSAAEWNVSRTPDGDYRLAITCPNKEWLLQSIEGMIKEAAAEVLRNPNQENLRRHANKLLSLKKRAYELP

[6] = biological target: T4, ΔNp73β (Homo sapiens, UniProt O15350-9 1-450)
T4 sequence: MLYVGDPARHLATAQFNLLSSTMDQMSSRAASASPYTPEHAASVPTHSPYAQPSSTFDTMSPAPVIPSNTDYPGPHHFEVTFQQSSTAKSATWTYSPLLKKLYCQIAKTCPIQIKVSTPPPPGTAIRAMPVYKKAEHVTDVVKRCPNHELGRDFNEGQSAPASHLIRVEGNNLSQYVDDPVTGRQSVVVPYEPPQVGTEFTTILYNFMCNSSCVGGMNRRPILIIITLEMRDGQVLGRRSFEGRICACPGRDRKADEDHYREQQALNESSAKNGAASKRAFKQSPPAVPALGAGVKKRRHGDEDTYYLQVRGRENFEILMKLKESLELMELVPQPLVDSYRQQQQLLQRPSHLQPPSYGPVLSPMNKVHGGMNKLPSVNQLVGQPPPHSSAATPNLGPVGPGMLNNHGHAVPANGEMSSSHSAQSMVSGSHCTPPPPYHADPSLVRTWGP

[7] = biological target: T5, ΔNp63α (Homo sapiens, UniProt Q9H3D4-2 1-586)
T5 sequence: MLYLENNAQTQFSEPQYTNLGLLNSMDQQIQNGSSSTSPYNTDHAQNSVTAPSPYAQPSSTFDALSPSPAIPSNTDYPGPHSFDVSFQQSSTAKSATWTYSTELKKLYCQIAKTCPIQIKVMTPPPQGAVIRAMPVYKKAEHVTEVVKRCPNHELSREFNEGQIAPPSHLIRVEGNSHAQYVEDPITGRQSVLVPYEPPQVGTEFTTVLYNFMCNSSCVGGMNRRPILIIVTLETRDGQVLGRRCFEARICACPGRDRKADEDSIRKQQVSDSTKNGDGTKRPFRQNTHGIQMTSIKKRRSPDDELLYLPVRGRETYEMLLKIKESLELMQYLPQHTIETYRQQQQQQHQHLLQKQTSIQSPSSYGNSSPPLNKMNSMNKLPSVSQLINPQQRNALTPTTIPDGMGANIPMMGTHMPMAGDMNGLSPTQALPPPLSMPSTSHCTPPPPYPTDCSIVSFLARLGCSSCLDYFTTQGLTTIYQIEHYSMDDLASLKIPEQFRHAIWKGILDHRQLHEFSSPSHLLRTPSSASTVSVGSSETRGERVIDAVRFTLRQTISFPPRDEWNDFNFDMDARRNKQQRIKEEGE

Mmp53, sequence (P02340 whole entry): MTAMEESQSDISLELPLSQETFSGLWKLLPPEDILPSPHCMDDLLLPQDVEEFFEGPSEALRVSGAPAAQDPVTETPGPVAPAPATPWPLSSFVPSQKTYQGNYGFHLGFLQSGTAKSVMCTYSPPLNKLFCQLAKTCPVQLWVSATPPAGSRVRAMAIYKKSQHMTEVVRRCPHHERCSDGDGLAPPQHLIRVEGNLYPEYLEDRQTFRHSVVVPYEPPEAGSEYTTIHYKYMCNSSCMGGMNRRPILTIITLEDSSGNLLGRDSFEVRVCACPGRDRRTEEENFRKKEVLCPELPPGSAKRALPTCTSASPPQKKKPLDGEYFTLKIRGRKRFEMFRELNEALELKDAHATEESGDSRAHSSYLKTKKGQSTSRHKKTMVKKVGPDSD
Hsp53, sequence (P04637 whole entry): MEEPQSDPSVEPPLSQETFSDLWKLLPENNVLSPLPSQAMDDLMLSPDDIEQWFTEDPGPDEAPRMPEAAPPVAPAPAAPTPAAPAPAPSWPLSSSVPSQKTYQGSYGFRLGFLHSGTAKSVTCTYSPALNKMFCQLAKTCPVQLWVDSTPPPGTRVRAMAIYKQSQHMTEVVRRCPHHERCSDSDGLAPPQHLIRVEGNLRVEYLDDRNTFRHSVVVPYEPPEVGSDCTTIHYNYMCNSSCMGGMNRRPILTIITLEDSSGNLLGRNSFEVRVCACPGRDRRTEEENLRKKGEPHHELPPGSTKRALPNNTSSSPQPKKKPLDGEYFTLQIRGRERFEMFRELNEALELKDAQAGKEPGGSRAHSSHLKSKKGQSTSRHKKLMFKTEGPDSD

B1: Ref competitor (dsDNA)
DNA 1: CGCGGACATGTCCGGACATGTCCCGC
DNA 2: GCGGGACATGTCCGGACATGTCCGCG
[1]
  Kd: 148 nM
[2]
  Kd: 75.9 nM
[3]
  Kd: 132 nM
[4]
  Kd: 35.5 nM
[5]
  Kd: 27.5 nM
[6]
  Kd: 24 nM
[7]
  Kd: 61.7 nM
